Measurements published in the supplement of paper PMC12636428.

Tested on: Saccharomyces cerevisiae
Experiment: transcriptional activation domain activity (GFP:mCherry ratio, weighted mean of sorted bins, harmonized to initial dataset scale) (arbitrary fluorescence ratio units); higher = stronger transcriptional activation
Conditions: beta-estradiol 1 µM; induction time 4 h
How it was run: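 Each value is an activation activity: the read-weighted mean of bin median fluorescence, averaged across barcodes, then mapped linearly to the initial dataset scale. The tiles, fused to an estradiol-inducible synthetic transcription factor, sat at the yeast URA3 locus in GFP-reporter diploids. Cells spent 4 hours at 30 °C in SC with 1 uM beta-estradiol before sorting into 8 GFP:mCherry bins, and tiles below 50 reads were removed.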

| Sequence | transcriptional activation domain activity |
| --- | --- |
| MGIGIHTFFYFWLLIFLFLFLFLFFSWFFFFVIVIIFFNYFIFLRAWMWIAGL | 41600 |
| VDTCRLSAPLVWWLTFGILCTMYLLVLEVILFGILVFMVLPFIMLLYSIMLLC | 49100 |
| SADTQKEEGKRAKVEKNRRGKRDGHKAGRFSGGRRKERGEASTQAGAAAAGAN | 37500 |
| GAAAASGTKPKPTAAGGAAGAAAASGAKPKPTAAGAAGAAAASGAKPKPTGAA | 15300 |
| LSRAGTGGRAGTAKEAGEAAGGGEQQGEEAGGKEEAGAGAEGEAENGTGGKRN | 23400 |
| MARAKPTRIVESDEDDSDSGQLSSAPAKRKAGSEDANPAAKRARTASAKQKQL | 63000 |
| LSEPMAKNPYYYLCVLARIVVVKFAMLLRIIYGVYVPIYTYSAYCFLTDITLF | 62900 |
| NNPDAKKARACESCRQLKVKCEPDADNPDGPCRRCAKAGRACVVTQPTRKRQK | 38000 |
| VPMAYHHYIALLIFGAYLSNVNALCVLSLLPLLLHSLFWSLGATNFLLLSVYN | 56600 |
| PRNSWIKWAFLFARYFPLLAGLCGRVIDSIVLYRQPIPIPLNALRIWYICQVL | 52500 |
| HPLIDVSEEAFIQLAYLAVALAKHLCILTRVTYYQNVKGLSSSHFMYLFYICL | 40200 |
| VPYFHGLQPNNHYIHRLVVIFLQFAPSFIILTISYEGLFYFGFCLCLFCWILL | 40300 |
| TTLTEKGSQVMEKNMDQLDSVHNLNDDDLQQLLEDLGNIDHSDEKLWKEITDQ | 93200 |
| MCVLHHLSHTLCFALFCYVIEAFRFTSYLLLLPFWRFYVLVVIPLFIHISYVF | 52500 |
| ERSILWRAYLRLISHINSIYKIRIAYEWTEDFVIKYLWSAAGYCLISVPVLLT | 54200 |
| PSGIIVLVICTLGLLCCTIMIILIFYFRYFKPIMSSSPIFCYLQLVGISMAYI | 46000 |
| KFCAITLAGTWGKVVLYSLAMTRVVSYCYNIYYMDSVFSRTIRPGIGICFTSL | 67100 |
| NQQPVFRAKYLLRQLFHLCNRTEHELRTLWTPAMVVLVARRLFDSIHPALGSL | 58300 |
| GPLRVAQRPRERPGLRAARVPAEGQEAEGPGRLGRARVGGGVPRGRAAARVVV | 34200 |
| MPPAPKSPQPRRPGAPKSKGAVRAKSGCYTCRIRRKKCDEQMNAEGSCSTCVR | 42800 |
| VPGEVTEAEANGEAPKAEDGAEDGEAAKPKKKKKSKAARKAKKAAAASTEDGA | 21600 |
| LLVLLLVLLLVLLLILLLILLILLVYLLLLLLLVLLFFLLLLLLLFTFILHFL | 46200 |
| MYVEIFFLSLVWRIIIVLSLTSKGVFFNITYLFFRFLFSLVLCIFFFLHFFSL | 43100 |
| DDDKKETGAFTHQWILLAKSRASHILLCITYFYASVLAVVSVGSVNWRNVAVK | 63000 |
| GRKILNVFALVFFFINLFLFCLFLALTMCRYAMFPRLWGLMLRDPVQSLYLGC | 46700 |

| Sequence | transcriptional activation domain activity |
| --- | --- |
| WIQCTIPGYVSNFAYGLASGFTVTLNTAVLMEIVFHSKSYRILILSLFTTLYV | 61400 |
| KTSNDLKYLFTFVEYHVFVSLIRRSLSQLDENKEKHEQMIKLYDDILKNIECI | 24800 |
| DSDTRRRGGEGGHRMRSSIACTRCRRSKIKCENQGVGSQCKACHGQGRECTYP | 31300 |
| MASASLASKQSIRPHRKSRTGCSTCKRRKVKSLAVVGAGLGRSGQVTAGSPTG | 54100 |
| LREKGGSQQQQHQQQQQQQQQQQQQQQQQSLDTLLHHYQSLLSKSDNAIAFDD | 26800 |
| EKEGKRRSLQKASTSKASSKTLHFMECKVVPEQPLLRIRWSSLTHGALMLYNG | 49300 |
| YSLNIFIFGNGRYGSTIQANLHGLRSFIRLVPKDCLALIRHLHLHIFFSGLPD | 54800 |
| LILEPPPAGGADGGPPTRSVPSSALRVGDLVLLEKNQRVPADCVLLRTSDAAG | 58800 |
| RLETLHKCIVTYLWLSYRFANLVGSRKVATYAKEITENVIEKTLMEFTWTRWA | 52000 |
| MDRQQNGSKRTESVRQPVSCEPCRRRKIKCSRSHPPCDTCRRRRCPDSCVYKS | 43700 |
| LLKYAEWLIKPEQNNGSWVADVLWPVLNLDLQWISSHWNESSWDLWWPPIWGG | 32400 |
| SHNTHTLSLSLPFPSYSSYSDLIFLFLFLLLFFFFLFLFLFLFLFLFLFSLPF | 34100 |
| LVEFLFAVNDEVANVLLVFFCVFVAGYFILTSLPLLFQQCPFQTPLTSFFWYA | 38600 |
| VSVSLIFFTCFLSLSLFFCVLVRVSWLSVPVPSIVFFWISFLLFCPFFPFSFF | 35700 |
| ELGLLADIMQHEIQGFWGLIKILAKRRKNKYHANMADVNMRSVFQKAFTSWMM | 44500 |
| TEEVVEPAAEKPAKKSRKRKSDVAEAVAEEKPETPVKPKKAKKEVAKAEEVVA | 20400 |
| GKEKKDGEAAAPAAANHAPAEASAPAQTSSRPEGGERGRGRGRGHKGERGGAG | 43200 |
| MHTLLTILQTLHILVIFNTIVYPVCLFEICCFAWYFIPFAFRFLCLCFFFLFL | 55000 |
| LQQVCNVLPSFEQSSKIITDFFNTELETNEVSEVLDKTKIINDFTSSFLPSDE | 50400 |
| MRHEHGGMAFNVFFLWTFMYLCLWLRVNVLCFMSISLFLMSLFFLFFLVWLSG | 51200 |
| SASASAAPAASTAGSADKSGGAQEKHRGGRRRGGRGRGDKESGGKEGGSKNTE | 34400 |
| LTEVTSPRFIASIIACLCNHFAWFFYFIDPHHYHALFTPVEICLFFLVVVWFV | 52100 |
| SAKSLRLTVDEVKMLHRPALWYLIVGLVDTVAAARLRYFSFILHRPPLRQTLS | 47800 |
| ACLFTMELILHNIYAVAIRSAGSPVWSSFTPFELSMFGFWNLIIVWMKLLLPW | 54700 |
| MESAKKAVESVAEGIKKVAISGDQKPAAGGKKEGGKKEKKAAKAGAEVSSGPL | 34300 |

| Sequence | transcriptional activation domain activity |
| --- | --- |
| MPGGWVFLMSIAFYYFILLFFLLLPMIYGFLFVCLFGVGTCFVICTFGFFPFF | 62400 |
| FMHLSRPEKLLVLKVFADLVDYARKSIDSCLSSPTVNWSFNNLLWNYCSMLLQ | 67000 |
| VDRSHLELIFGLPIWRLSGILVQTVWYVFQTGFSTLLSLCLFLVSAKRWIVWR | 52400 |
| LLCILLLVYFIYVALFLVSINTGVTLSGLNIQMSSKYSVYYLLIYHVFGFFWL | 58900 |
| MYHSIQLGPVVSLLSLALSFIFFFLSPFFFFPFLALSFAPLFVILIFFFISTC | 29000 |
| ESSSDEEEMTVAQKMAAQRKAEAAARRAKAHEEALAARSKDDLRSPICCILGH | 53200 |
| VYMLTMESKKLLLRHVIDKLPGFLPTDLSGVTFLADWIHMQTGRIKKGTFNIV | 59700 |
| MAGAVPVLMLILLQLSHLCTAFKFYSESGFALVRKILLTALPTFEPHHYQMDG | 64300 |
| IYCAGWVFRYFFLFPYRLSLLLAATLFFFLALPIVLYFKNDEWQRWLFRFYCQ | 57500 |
| YADMLMRIWSVWEFALWQYVSNEEFMGLLGFSRLRFRRMYLLVNNGCLFWRIF | 72400 |
| LALQTMYFIPDIPQQALVDFWPRIWPWVQFFDIYGDIIRLCPPLQLYWVFFAY | 25500 |
| MTMRKSFEYSFSREIYFLFFFLFFSFLFFLSFLSFSLSLFFFFPLHPGLFRLV | 54400 |
| FALFPEDPIILTIFGFFFSIPCFYYIVAKPQYISASRFVLLTYNLTCLYCYNL | 32600 |
| MSLFSPCGETPLFLFPLFALTGLAPVLPPGSPLFFYLTLPLSFSFFHFFIFFF | 79500 |
| YSRRDRPRDRGDRGDRDGGEERGGRRDRGDRNDRFGGEDRGGRGRRDGGGGGG | 10400 |
| LYSIFSLLSIRFFILYSVYVFFFFIGALGGGMLYGLFFFFFFDEVIWYSFFLS | 35400 |
| ILLGLLVLVLLYANVVLIIYHEPTFRRPLDMAFIHAPIRLFFILPFGVLFWYS | 63100 |
| YYPLFLGRLLPLSLLSFFVYFILFTFAFLPQLAFLYIFHGRGAWLNAIFLVLG | 44200 |
| SRKESRKEKSESKPVKAGKKEGKEKGKGKEGKEGKADGEKAAKPKKEKKEKKE | 17700 |
| KESRKERHHDSDRRHKRRHRSREGGEGRDRDRDHRRHHRHGRDRSRSRERKLG | 67400 |
| TIITNRGTIPNGLGRDIWTLQPDMITSFAYWFYHMEYAYFLNLVLLKASILFF | 57800 |
| KRGEGEAGKESGRQRRSGSAGERAGRRGEGSKEGAEGESEASREKGNKRNDEE | 32800 |
| TLSGVLMLFWQPNGQRLIGNATLWCWIRPGLEFYRIVLNYGWIWIILGVNICT | 73100 |
| IDHTDIHAHHADAHDDSFIESEEWLSKFIMDSQIDNDLKLNINHFNDIGFNNL | 154000 |
